Measurements published in article PMC9876794 (2022).

Columns and labels:
[1] = target: T1, SARS-CoV-2 spike RBD (WT) (Severe acute respiratory syndrome …, UniProt P0DTC2); experiment: ELISA; set-up: unit not given here
[2] = target: T1, SARS-CoV-2 spike RBD (WT); experiment: BLI

Binder	binding score [1]	Kd [2] [µM]
D184 (antibody, V domains shown) VH: QVQLVQSGAEVKKPGSSVKVSCKASGGTFSSYAISWVRQAPGQGLEWMGGIIPIFGTANYAQKFQGRVTITADESTSTAYMELSSLRSEDTAVYYCARGRGSTYYYYYYMDVWGKGTTVTVSS VL: not shown	8050	–
D162 (antibody, V domains shown) VH: QVQLVESGGGVVQPGGSLRLSCAASGFTFSSYGMHWVRQAPGKGLEWVAFIRYDGSNKYYADSVKGRFTISRDNSKNTLYLQMNSLRAEDTAVYYCAKDQYYYGSGSYPWFDPWGQGTLVTVSS VL: not shown	958	1.44
D165 (antibody, V domains shown) VH: QVQLVQSGAEVKKPGASVKVSCKASGYTFSNYVINWVRQAPGQRPEWMGWINADNGHTVYSQKLQGRVTITTDTSASEAYMELSGLRSEDTAVYYCARGREDYYNNEPYGMDVWGQGTTVTVSS VL: DIQMTQSPSSLSASVGDRVTITCRASQTISNYLNWYQQKPGQAPKLLIFAASSLQTGVPSRFSGSGSGTTFTLTISSLQPEDFATYYCQQSYGSLYTFGQGTKLDIK	1370	0.117
D073 (antibody, V domains shown) VH: QLQLQESGPGLVKPSETLSLTCTVSGGSMSSGSYYWGWIRQPPGKGLEWIGSIFYSGSTYYNPSLKSRVTISIDTSKRQFSLNLRSVTAADKAVYYCARQDIMGYSDVWGEGTTVTVSS VL: EIVLTQSPGTLSLSPRERATLSCRASQSITSTYFAWYQQRPGQAPRLLIYDGSRRATGIPDRFSASGSGTDFTLTISGLEAEDFAVYYCQQYLRLPYTFGQGTKLEIK	> 10000	–
D104 (antibody, V domains shown) VH: QVQLQQWGAGLLKPSETLSLTCAVYGESFSGHYWTWIRQPPGKGLEWIGEINHRGSTDYHASLKSRVSISIDTSKNQFSLRLKSVTAAETAIYYCARGRSAWPRRSFAFWGQGILVTVSS VL: DIQMTQSPSTLSASVGDRVTITCRASQSISTSLAWYQQKPGKAPKLLIYESSTLESGIPSRFSGSGFRTGFTLTISSLQPDDVATYYCQHYNASPYTFGQGTKLEIK	> 10000	–
C2744 (antibody, V domains shown) VH: EVQLLESGGGLVQTGGSLRLSCAASGFTFSSYAMSWVRQAPGKGLEWVSAISGTGGSTYYADSVKGRFTISRDHSKNTLYLQMNSLRAEDTAVYYCAKPINMIDPHDAFDIWGQGTMVTVSS VL: not shown	5390	0.248
C2695 (antibody, V domains shown) VH: EVQLVESGGGLAQPGRSLRLSCAASGFKFDDYAMHWVRQAPGQGLEWVSGIDWNSGIIGYADSVMGRFTISRDNAKKSLYLQMNSLRAEDTALYYCAKSGGFGEFKWFDPWGQGTLVTVSS VL: EIVMTQSPVTLSVSPGERATLSCRASQSVSGNLAWYQQKPGQAPRLLIYGASTRATGFPARFSGSGSGTEFTLTISRLQSEDFAVYYCQQYNKWPRTFGQGTKLEIK	45.1	0.133
C2726 (antibody, V domains shown) VH: EVQLVQSGAEVKKPGESLKISCKGSGYSFTSYWIGWVRQMPGKGLEWMGIIYPGDSDTRYSPSFQGQVTISADKSISTAYLQWSSLKASDTAMYYCARRTAARTNGVCLDYWGQGTLVTVSS VL: not shown	3440	0.133
D054 (antibody, V domains shown) VH: QVQLVQSGAEVKKPGASVKVSCKASGYTFTSYYMHWVRQAPGQGLEWMGIINPSGGSTSYAQKFQGRVTMTRDTSTSTVYMELSSLRSEDTAVYYCARESGTGFGELPKGGPFDYWGQGTLVTVSS VL: not shown	> 10000	–
D044 (antibody, V domains shown) VH: not shown VL: QSVLTQPPSVSGAPGQRVTISCTGSSSNIGAGYDVHWYQQLPGTAPKLLIYGNSNRPSGVPDRFSGSKSGTSASLAITGLQAEDEADYYCQSYDSSLSGYVFGTGTKVTVL	266	0.0569
D166 (antibody, V domains shown) VH: EVQLVESGGGLVQPGGSLRLSCAASGFTFSSYDMHWVRQATGKGLEWVSAIGTAGDTYYPGSVKGRFTISRENAKNSLYLQMNSLRAGDTAVYYCARVSYDSSGYYWVFDYWGQGTLVTVSS VL: not shown	2870	–
D032 (antibody, V domains shown) VH: QVQLVESGGGVVQPGRSLRLSCAASGFTFSSYGMHWVRQAPGKGLEWVAVISYDGSNKYYADSVKGRFTISRDNSKNTLYLQMNSLRAEDTAVYYCAKVETVVDSDYYYYYGMDVWGQGTTVTVSS VL: SYVLTQPPSVSVSPGQTARITCSGDALPKQYAYWYQQKPGQAPVLVIYKDSERPSGIPERFSGSSSGTTVTLTISGVQAEDEADYYCQSADSSGTYWVFGGGTKLTVL	> 10000	–
D102 (antibody, V domains shown) VH: QVQLVESGGGVVQPGGSLRLSCAASGFTFSSYGMHWVRQAPGKGLEWVAFIRYDGSNKYYADSVKGRFTISRDNSKNTLYLQMNSLRAEDTAVYYCAKTLGYYYDSSGYYLDYWGQGTLVTVSS VL: not shown	22.3	0.0491
D001 (antibody, V domains shown) VH: QVQLVESGGGVVQPGRSLRLSCAASGFTFSSYGMHWVRQAPGKGLEWVAVISYDGSNKYYVDSVKGRFTISRDNSKNTLYLQMNSLRAEDTAVYYCAKEGGSYYGGGGYFDYWGQGTLVTVSS VL: DIQMTQSPSSLSASVGDRVTITCQASQDISNYLHWYQQKPGKAPKLLIYDASNLETGVPSRFSGSGSGTDFTLTISSLQPEDIATYYCQQYDNLPYTFGQGTKLEIK	77.6	0.0166
D040 (antibody, V domains shown) VH: QVQLVESGGGVVQPGRSLRLSCAASGFTFSSYGMHWVRQAPGKGLEWVTAISYDGSNKYYADSVRGRFTISRDNSKRTLYLQMNSLRAEDTAVYYCAKGVGPYCSGGSCYSPYFDYWGQGTLVTVSS VL: DIQMTQSPSSLSASIGDRVTITCQANQDISNYLNWYQQKPRKAPKLLIYDASDLETGVPSRFSGSGSGTDFTFTISSLQPEDIATYYCQQSDNLPLTFGGGTKVEIK	7.71	0.032
C2706 (antibody, V domains shown) VH: EVQLVESGGGVVQPGGSLRLSCAASGFTFSSYGMHWVRQAPGKGLEWVAFIRYDGSNKYYADSVKGRFTISRDNSKNTLYLQMNSLRAEDTAVYYCAKVGGRYSGYEGYFDYWGQGTLVTVSS VL: not shown	> 10000	–
D137 (antibody, V domains shown) VH: QVQLVQSGAEVKKPGASVKVSCKASGYTFTSYDINWVRQATGQGLEWMGWMNPNSGNTGYAQKFQGRVTMTRNTSISTAYMELSSLRSEDTAVYYCARAYCSGGSCYSQPWGQGTLVTVSS VL: QSALTQPPSASGSPGQSVTISCTGTSSDVGGYNYVSWYQQHPGKAPKLMIYEVSKRPSGVPDRFSGSKSGNTASLTVSGLQAEDEADYYCSSYAGSNNWVFGGGTKLTVL	395	–
D100 (antibody, V domains shown) VH: QVQLVQSGAEVKKPGASVKVSCKASGYTFTSYGISWVRQAPGQGLEWMGWISAYNGNTNYAQKLQGRVTMTTDTSTSTAYMELRSLRSDDTAVYYCARVPDRRETPYYDFWSGYSIFDYWGQGTLVTVSS VL: DIQMTQSPSSLSASVGDRVTITCRASQGISNYLAWFQQKPGKAPKSLIYAASSLQSGVPSKFSGSGSGTDFTLTISSLQPEDFATYYCQQYNSYPLTFGGGTKVEIK	> 10000	0.53
D079 (antibody, V domains shown) VH: not shown VL: QSALTQPASVSGSPGQSITISCTGTSSDVGGYNYVSWYQQHPGKAPKIMIYDVSNRPSGVFNRFFGSKSGNTASLTIFGLQAEDEADYYCSSYTSSSTLGVFGGGTKLTVL	> 10000	–
D069 (antibody, V domains shown) VH: QVQLVESGGGVVQPGGSLRLSCAASGFTFNIYGMHWVRQAPGKGLEWVAFIRYDGSNKYYADSVKGRFTISRDNSKNTLYLQMNSLRAEDTAVYYCAKSVGYYASGSYYFDYWGQGTLVTVSS VL: not shown	252	0.14
D081 (antibody, V domains shown) VH: QVQLQESGPGLVKPSQTLSLTCTVSGGSISSGDYYWSWIRQPPGKGLEWIGYIYYSGSTYYNPSLKSRVTISVDTSKNQFSLKLSSVTAADTAVYYCARVAGIVNWFDPWGQGTLVTVSS VL: NFMLTQPHSVSESPGKTVTISCTGSSGSIASNYVQWYQQRPGSAPTTVIYEDNQRPSGVPDRFSGSIDSSSNSASLTISGLKTEDEADYYCQSYDSSNQVFGGGTKLTVL	> 10000	–
D131 (antibody, V domains shown) VH: QVQLVQSGAEVKKPGASVKVSCKASGYTFTSYGISWVRQAPGQGLEWMGWISAYNGNTNYVQKLQGRVTMTTDTSTSTAYMELRSLRSDDTAVYYCARVQYYYGSGSYRSTYYFDYWGQGTLVTVSS VL: QPVLTQSSSASASLGSSVKLTCTLSSGHSSYIIAWHQQQPGKAPRYLMNLEGSGSYNKGSGVPDRFSGSSSGADRYLTISNLQSEDEADYYCETWDSNIWVFGGGTKLTVL	> 10000	–
D058 (antibody, V domains shown) VH: QVQLQESGPGLVKPSETLSLTCTVSGYSISSGYYWGWIRQPPGKGLEWIGSIYHSGSTYYNPSLKSRVTISVDTSKNQFSLKLSSVTAADTAVYYCARDFPLTLYGVLISDAFDIWGQGTMVTVSS VL: SYELTQPPSVSVSPGQTARITCSADALPKQYAYWYQQKPGQAPVLVIYKDSERPSGIPERFSGSSSGTTVTLTISGVQAEDEADYYCQSADSSGKVFGGGTKLTVL	84.8	0.0241
D030 (antibody, V domains shown) VH: QVQLVQSGAEVKKPGASVKVSCKASGYTFTSYDINWVRQATGQGLEWMGWMNPNSGNTGYAQKFQGRVTMTRNTSISTAYMELSSLRSEDTAVYYCARDGSGPYDILTGYGMDVWGQGTTVTVSS VL: not shown	> 10000	–
D107 (antibody, V domains shown) VH: QVQLVQSGAEVKKPGASVKVSCKASGYTFTSYDINWVRQATGQGLEWMGWMNPNSGNTGYAQKFQGRVTMTRNPSISTAYMELSSLTSDDTAVYYCATALPWDGYNPYYFHYWGQGTLVTVSS VL: not shown	> 10000	–
